Experiment [1] addresses Crotalus durissus terrificus venom. The experiment can be described thus: ELISA, venom coat, dilution 1:3125. For orientation: ELISA stands for enzyme-linked immunosorbent assay.
For experiment [2] the target is unchanged. In words: ELISA, venom coat, undiluted.
The target is the same in experiment [3]. In words: ELISA, venom coat, dilution 1:25.
Experiment [4] shares this target. In words: ELISA, venom coat, dilution 1:125.
The target is the same in experiment [5]. The experiment can be described thus: ELISA, venom coat, dilution 1:312,500.
Experiment [6] shares this target. In words: ELISA, venom coat, dilution 1:625.
Experiment [7] has the same target. The experiment can be described thus: ELISA, venom coat, dilution 1:5.
Experiment [8] has the same target. The experiment can be described thus: ELISA, venom coat, dilution 1:3125. The source holds these as a separate data set.
Experiment [9] shares this target. In words: ELISA, venom coat, dilution 1:25. This is another data set of the same source.
Experiment [10] shares this target. In words: ELISA, venom coat, dilution 1:625. This is another data set of the same source.
Experiment [11] shares this target. The experiment can be described thus: ELISA, venom coat, dilution 1:62,500.
Experiment [12] has the same target. In words: ELISA, venom coat, dilution 1:125. The source holds these as a separate data set.

A value given as a limit tells only on which side of the number the result lay.

The results in this text go back to US20040219637A1.

Take “Preimmune IgY (egg yolk antibody of unimmunized hens)”: the ELISA absorbance in experiment [1] was 0.002 absorbance; in experiment [2], 0.003 absorbance; in experiment [3] it was 0.016 absorbance; in [4] it was less than 0 absorbance; in experiment [6], 0 absorbance; in experiment [7], less than 0 absorbance. Moreover, the ELISA absorbance in experiment [8] is less than 0 absorbance; in experiment [9], 0 absorbance; in experiment [10] it was less than 0 absorbance; in experiment [12], 0.003 absorbance. For the same substance, the ELISA absorbance (412 nm) in experiment [5] is 0.01 absorbance; in experiment [11], 0.001 absorbance.
